# Target: HLA-A*02:02
# Experiment: IEDB peptide-MHC binding, purified MHC/competitive/radioactivity; filed as Kd, often an IC50 or EC50 that approximates it; ≥ and ≤ were set here for values at or beyond the usual limits of such assays
# Conditions: source organism: Lymphocytic choriomeningitis virus (strain Armstrong)
row,Sequence,Kd [nM]
1,HNASDFYGL,6510

# Same assay, conditions: source organism: Mammarenavirus guanaritoense
row,Sequence,Kd [nM]
1,WSAIFFTTSL,2000

# Same assay, conditions: source organism: SARS coronavirus Tor2
row,Sequence,Kd [nM]
1,FLFLAWIMLL,18.6
2,ITMTTVYHI,19.2
3,FLLNKEMYL,0.329

# Same assay, conditions: source organism: Vaccinia virus WR
row,Sequence,Kd [nM]
1,LTHFNNNENV,907
2,SLVSKHWEL,1.16
3,IVPEFAKQYV,10.3
4,STFNMWREIL,3120
5,EMKYALINLV,1260
6,CTNDIYCDEI,2460
7,EIVSHLRAST,5150
8,RQVSVKLLI,17900
9,QTGINNVQSL,≥ 20200
10,IAVSVYGAIT,7890
11,DVEKEKFVAT,≥ 37500
12,KLYGYASLT,75.8
13,ELWARISSSL,175
14,FVLALYSPPL,2.19
15,IVNCLSLSNL,338
16,STTENAAYQV,928
17,NVTGFMEEEI,10300
18,DVSLSAYII,691

row,Sequence,Kd [nM]
1,SIYIAVANCV,534
2,CIVAAVIIM,14300
3,MVTDKTAYI,16.8
4,ALKAYFTAKI,194
5,VIRHVDGKIL,≥ 70000
6,LQDIVNEHDI,7630
7,RINLLVQYGA,10300
8,NASKTINAL,117
9,DAMIHKTYI,5420
10,DAKRNSKSL,13700
11,LQWDDNIPEL,180
12,TLLGLILFVL,169
13,GLILFVLAL,129
14,AAITLVVISV,501
15,DTIAHINTL,747
16,ALAEHISDSI,0.198
17,MAAAKTPVI,259
18,IAMLKSKNI,≥ 37700

# Target: HLA-A*02:03
# Experiment: as above
# Conditions: source organism: Dengue virus 1 Brazil/97-11/1997
row,Sequence,Kd [nM]
1,PLNEGIMAI,63.8
2,GMVTLYLGV,12.4

# Same assay, conditions: source organism: Dengue virus 1 Nauru/West Pac/1974
row,Sequence,Kd [nM]
1,GLFGKGSLI,13

# Same assay, conditions: source organism: Dengue virus 2 16681-PDK53
row,Sequence,Kd [nM]
1,IMKDGRVLVV,6.09

# Same assay, conditions: source organism: Dengue virus 2 Jamaica/1409/1983
row,Sequence,Kd [nM]
1,TLLATVTGGI,12.8
2,GLFKTNTGTI,45.8

# Same assay, conditions: source organism: Dengue virus 3 Martinique/1243/1999
row,Sequence,Kd [nM]
1,LLMLVTPSMT,169

# Same assay, conditions: source organism: Dengue virus 4 Philippines/H241/1956
row,Sequence,Kd [nM]
1,GLSSRATWA,36.9

# Same assay, conditions: source organism: Homo sapiens
row,Kd [nM],Sequence
1,23.8,SLIGSKTQI

# Same assay, conditions: source organism: Lymphocytic choriomeningitis virus (strain Armstrong)
row,Sequence,Kd [nM]
1,HNASDFYGL,≥ 78100

# Same assay, conditions: source organism: Mammarenavirus guanaritoense
row,Sequence,Kd [nM]
1,WSAIFFTTSL,6990

# Same assay, conditions: source organism: SARS coronavirus Tor2
row,Sequence,Kd [nM]
1,FLFLAWIMLL,55.7
2,ITMTTVYHI,7.21
3,FLLNKEMYL,1.13

# Same assay, conditions: source organism: Vaccinia virus WR
row,Sequence,Kd [nM]
1,LTHFNNNENV,7270
2,SLVSKHWEL,36
3,IVPEFAKQYV,18.3
4,STFNMWREIL,907
5,EMKYALINLV,283
6,CTNDIYCDEI,5720
7,EIVSHLRAST,2810
8,RQVSVKLLI,254
9,QTGINNVQSL,≥ 24400
10,IAVSVYGAIT,9240
11,DVEKEKFVAT,≥ 54800
12,KLYGYASLT,21.5
13,ELWARISSSL,324
14,FVLALYSPPL,38.4
15,IVNCLSLSNL,128
16,STTENAAYQV,4700
17,NVTGFMEEEI,5140
18,DVSLSAYII,755

row,Sequence,Kd [nM]
1,SIYIAVANCV,62.7
2,CIVAAVIIM,1420
3,MVTDKTAYI,1.99
4,ALKAYFTAKI,77
5,VIRHVDGKIL,≥ 33400
6,LQDIVNEHDI,≥ 38200
7,RINLLVQYGA,15300
8,NASKTINAL,708
9,DAMIHKTYI,1520
10,DAKRNSKSL,≥ 49700
11,LQWDDNIPEL,712
12,TLLGLILFVL,796
13,GLILFVLAL,452
14,AAITLVVISV,246
15,DTIAHINTL,233
16,ALAEHISDSI,0.34
17,MAAAKTPVI,209
18,IAMLKSKNI,846

# Target: HLA-A*02:06
# Experiment: as above
# Conditions: source organism: Dengue virus 1 Brazil/97-11/1997
row,Sequence,Kd [nM]
1,FQDGVFHTM,13.8

# Same assay, conditions: source organism: Dengue virus 2 Jamaica/1409/1983
row,Sequence,Kd [nM]
1,MAILCVPNAV,5.35
2,TQTAGPWHL,435

# Same assay, conditions: source organism: Dengue virus 3 Martinique/1243/1999
row,Sequence,Kd [nM]
1,KQIANELNYI,32.5
2,LQWIASAIV,3.72

# Same assay, conditions: source organism: Dengue virus 4 Philippines/H241/1956
row,Sequence,Kd [nM]
1,KTLTGEIGAV,30.7

# Same assay, conditions: source organism: Homo sapiens
row,Kd [nM],Sequence
1,10600,SLIGSKTQI

# Same assay, conditions: source organism: Lymphocytic choriomeningitis virus (strain Armstrong)
row,Sequence,Kd [nM]
1,HNASDFYGL,≥ 21700

# Same assay, conditions: source organism: Mammarenavirus guanaritoense
row,Sequence,Kd [nM]
1,WSAIFFTTSL,1400

# Same assay, conditions: source organism: SARS coronavirus Tor2
row,Sequence,Kd [nM]
1,FLFLAWIMLL,1010
2,ITMTTVYHI,2.31
3,FLLNKEMYL,1.6

# Same assay, conditions: source organism: Vaccinia virus WR
row,Sequence,Kd [nM]
1,LTHFNNNENV,996
2,SLVSKHWEL,34.9
3,IVPEFAKQYV,15
4,STFNMWREIL,3360
5,EMKYALINLV,9830
6,CTNDIYCDEI,4760
7,EIVSHLRAST,12600
8,RQVSVKLLI,0.135
9,QTGINNVQSL,≥ 54000
10,IAVSVYGAIT,14400
11,DVEKEKFVAT,≥ 69200
12,KLYGYASLT,1990
13,ELWARISSSL,9290
14,FVLALYSPPL,212
15,IVNCLSLSNL,1280
16,STTENAAYQV,101
17,NVTGFMEEEI,17700
18,DVSLSAYII,4380
19,SIYIAVANCV,1000
20,CIVAAVIIM,≥ 32600
21,MVTDKTAYI,25.2
22,ALKAYFTAKI,2780
23,VIRHVDGKIL,≥ 69800
24,LQDIVNEHDI,10900
25,RINLLVQYGA,7650
26,NASKTINAL,6100
